Test results: US20190194347A1, “ANTIBODIES FOR EPIDERMAL GROWTH FACTOR RECEPTOR 3 (HER3)” (NOVARTIS AG, priority 2010, published 2019)
Substitutions are numbered along the chain they refer to. Blank lines part the entries; values can stand above or below the binder they belong to.

Columns and labels:
[1] = molecular target: endogenous human HER3 on human cancer cells (SK-Br-3, MCF7, BT-474) (human, UniProt P21860 20-1342); assay: cell-based or functional assay
[2] = molecular target: T1, HER3 K267A (CD33-[Human HER3, residues 20-640, K267A]-TAG) (human, UniProt P21860 20-640); assay: ELISA titration on coated recombinant mutant HER3
T1 construct: also called HER3 K267A-Tag; not shown: C-terminal TAG (e.g., FLAG TAG)

[3] = molecular target: T2, HER3 L268A (CD33-[Human HER3, residues 20-640, L268A]-TAG) (human, UniProt P21860 20-640); assay: ELISA titration on coated recombinant mutant HER3
T2 construct: also called HER3 L268A-Tag; not shown: C-terminal TAG (e.g., FLAG TAG)

B1: MOR09823 (antibody, V domains shown)
VH: QVQLVESGGGLVQPGGSLRLSCAASGFTFSSYAMSWVRQAPGKGLEWVSVTGAVGRTYYPDSVKGRFTISRDNSKNTLYLQMNSLRAEDTAVYYCARWGDEGFDIWGQGTLVTVSS
VL: DIQMTQSPSSLSASVGDRVTITCRASQGISNWLAWYQQKPGKAPKLLIYGASSLQSGVPSRFSGSGSGTDFTLTISSLQPEDFAVYYCQQYSSFPTTFGQGTKVEIKR
% inhibition of proliferation, BT-474, 10 µg/ml IgG [1]: 39.8%
% inhibition of proliferation, MCF7 (neuregulin stimulated), 10 µg/ml IgG [1]: 82%
% inhibition of proliferation, SK-Br-3, 10 µg/ml IgG [1]: 39%

B2: MOR09825 (antibody, human IgG1, kappa, V domains shown)
VH: QVQLVESGGGLVQPGGSLRLSCAASGFTFSSYAMSWVRQAPGKGLEWVSAINSQGKSTYYADSVKGRFTISRDNSKNTLYLQMNSLRAEDTAVYYCARWGDEGFDIWGQGTLVTVSS
VL: B1 VL
% inhibition of proliferation, BT-474, 10 µg/ml IgG [1]: 37.2%
% inhibition of proliferation, MCF7 (neuregulin stimulated), 10 µg/ml IgG [1]: 63%
% inhibition of proliferation, SK-Br-3, 10 µg/ml IgG [1]: 41%

B6: MOR09824 (antibody, human IgG1, kappa, V domains shown)
VH: B2 VH with A50V, N52S, S53A, Q54W, K56H, S57V, T58K
VL: B1 VL
% inhibition of proliferation, BT-474, 10 µg/ml IgG [1]: 36.8%
% inhibition of proliferation, MCF7 (neuregulin stimulated), 10 µg/ml IgG [1]: 82%
% inhibition of proliferation, SK-Br-3, 10 µg/ml IgG [1]: 33%

B7: MOR09974 (antibody, human IgG1, kappa, V domains shown)
VH: B2 VH with A50V, S53P, Q54S, K56N, S57F, Y59N
VL: B1 VL
% inhibition of proliferation, MCF7 (neuregulin stimulated), 10 µg/ml IgG [1]: 20%
% inhibition of proliferation, SK-Br-3, 10 µg/ml IgG [1]: 35%

Continued, in another order:

% inhibition of proliferation, BT-474, 10 µg/ml IgG [1]: 43.8%
B3: MOR10702 (antibody, human IgG1, kappa, V domains shown)
VH: B2 VH with Q1E, V5L, A50V, N52S, S53A, Q54W, K56H, S57V, T58K
VL: B1 VL with V85T

% inhibition of proliferation, BT-474, 10 µg/ml IgG [1]: 43.6%
B4: MOR10701 (antibody, human IgG1, kappa, V domains shown)
VH: B2 VH with Q1E, V5L, A50V, I51T, N52G, S53A, Q54V, K56R, A61P
VL: B1 VL with V85T

% inhibition of proliferation, BT-474, 10 µg/ml IgG [1]: 41.6%
% inhibition of proliferation, MCF7 (neuregulin stimulated), 10 µg/ml IgG [1]: 81%
% inhibition of proliferation, SK-Br-3, 10 µg/ml IgG [1]: 35%
B5: MOR10703 (antibody, human IgG1, kappa, V domains shown)
VH: B2 VH with Q1E, V5L
VL: B1 VL with V85T
binding result [2]: no binding (tested: up to 10 µg/mL antibody (Example 7))
binding result [3]: no binding (tested: up to 10 µg/mL antibody (Example 7))
